molecular target: recombinant human IL-15 (Prospec cat no. CYT230) (human, UniProt P40933 49-162); assay: ELISA, plate-bound human IL-15; printed as BC50 (half-maximal binding concentration)
Experimental: Maxisorp plates were coated with recombinant human IL-15 (Prospec cat no. CYT230) or Rhesus macaque IL-15 (MyBiosource cat. no. MBS948894) at 100 ng/well in carbonate coating buffer for 2 hours at 37° C. Since published sequences of Rhesus macaque and Cynomolgus monkey IL-15 are identical, such recombinant IL-15 protein was referred to as Macaque Monkey IL-15. Tested human IL-15 recombinant protein has a sequence identical to that provided in SEQ ID NO: 1 but with an additional methionine at the N-terminal position as usually done for expressing recombinant proteins in E. Coli. Tested recombinant Macaque Monkey IL-15 was produced in yeast and has a sequence identical to that provided in SEQ ID NO: 4 but with an additional N-terminal His tag.
The plate was then blocked with 2% normal goat serum for 30 min at 37° C. and washed 6 times with PBS-Tween (0.05% Tween-20 in PBS, v/v). Test antibodies were added to the plate in triplicate at various dilutions in PBS-Tween and the plate was incubated with gentle rocking at room temperature for 2 hours. The plate was then washed 6 times with PBS-Tween and an appropriate dilution of goat anti-human IgG antibody (Millipore cat. no. AP309P) conjugated to horseradish peroxidase (HRP) was added to the plate and left rocking at room temperature for 1 hour. The plate was then washed 6 times with PBS-Tween and incubated with TMB substrate. The reaction was stopped by the addition of 1M H₂SO₄ and read at 450 nm. Dose response curves of absorbance versus concentration were plotted and analyzed to determine half-maximal binding concentrations (BC₅₀) using the Graphpad Prism software. BC₅₀ values expressed as molarity were extrapolated from concentration in ng/ml using a 150 kDa molecular weight value for all antibodies.

Chain of recombinant human IL-15 (Prospec cat no. CYT230) (P40933 other isoform, or with tags, fused parts or gaps): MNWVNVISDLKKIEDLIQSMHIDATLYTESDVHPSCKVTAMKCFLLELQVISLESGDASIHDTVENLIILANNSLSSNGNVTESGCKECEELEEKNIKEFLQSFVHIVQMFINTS

Binder	EC50 [nM]
huB-E29-3 (antibody, human IgG1, kappa, V domains shown, Humanized B-E29 variant; human IgG1 (G1m3) / kappa (Km3), produced in CHO cells; also called huVH3/huVL1) VH: EVRLMASGGGLVQPGGSLRLSCAASEFTFSNYAMSWVRQAPGKGLEWVSTISRGGDYTYYPDSVKGRFTISRDNSKNTLYLQMNSLRAEDTAVYYCARRVSMITGGWAMDYWGQGTLVTVSS VL: DVVMTQSPLSLPVTLGQPASISCRSSQSIVDITGNTYLEWYQQRPGQSPRLLIYKVFNRFSGVPDRFSGSGSGTDFTLKISRVEAEDVGVYYCFQDSFVPYTFGQGTKLEIKR	2.62
huB-E29-31 (antibody, human IgG1, kappa, V domains shown, Humanized B-E29 variant; human IgG1 (G1m3) / kappa (Km3), produced in CHO cells; also called huVH20/huVL6) VH: EVRLMASGGGLVQPGGSLRLSCAASEFTFSNYAMSWVRQAPGKGLEWVATISRGGDYTYYPDSVKGRFTISRDNSKNTLYLQMNSLRAEDTAVYYCARRVSFITGGYAMDYWGQGTLVTVSS VL: DVVMTQSPLSLPVTLGQPASISCRSSQSIVDITGNTYLEWFQQRPGQSPRRLIYKVFNRFSGVPDRFSGSGSGTDFTLKISRVEAEDVGVYYCFQESFVPYTFGQGTKLEIKR	3.51
huB-E29-9 (antibody, human IgG1, kappa, V domains shown, Humanized B-E29 variant; human IgG1 (G1m3) / kappa (Km3), produced in CHO cells; also called huVH7/huVL1) VH: EVRLMASGGGLVQPGGSLRLSCAASEFTFSNYAMSWVRQAPGKGLEWVATISRGGDYTYYPDTVKGRFTISRDNSKNTLYLQMNSLRAEDTAVYYCARRVSAITGGWAMDYWGQGTLVTVSS VL: DVVMTQSPLSLPVTLGQPASISCRSSQSIVDITGNTYLEWYQQRPGQSPRLLIYKVFNRFSGVPDRFSGSGSGTDFTLKISRVEAEDVGVYYCFQDSFVPYTFGQGTKLEIKR	1.99
huB-E29-30 (antibody, human IgG1, kappa, V domains shown, Humanized B-E29 variant; human IgG1 (G1m3) / kappa (Km3), produced in CHO cells; also called huVH20/huVL1) VH: EVRLMASGGGLVQPGGSLRLSCAASEFTFSNYAMSWVRQAPGKGLEWVATISRGGDYTYYPDSVKGRFTISRDNSKNTLYLQMNSLRAEDTAVYYCARRVSFITGGYAMDYWGQGTLVTVSS VL: DVVMTQSPLSLPVTLGQPASISCRSSQSIVDITGNTYLEWYQQRPGQSPRLLIYKVFNRFSGVPDRFSGSGSGTDFTLKISRVEAEDVGVYYCFQDSFVPYTFGQGTKLEIKR	5.87
huB-E29-8 (antibody, human IgG1, kappa, V domains shown, Humanized B-E29 variant; human IgG1 (G1m3) / kappa (Km3), produced in CHO cells; also called huVH6/huVL1) VH: EVRLMASGGGLVQPGGSLRLSCAASEFTFSNYAMSWVRQAPGKGLEWVATISRGGDYTYYPDTVKGRFTISRDNSKNTLYLQMNSLRAEDTAVYYCARRVSIITGGWAMDYWGQGTLVTVSS VL: DVVMTQSPLSLPVTLGQPASISCRSSQSIVDITGNTYLEWYQQRPGQSPRLLIYKVFNRFSGVPDRFSGSGSGTDFTLKISRVEAEDVGVYYCFQDSFVPYTFGQGTKLEIKR	1.79
huB-E29-12 (antibody, human IgG1, kappa, V domains shown, Humanized B-E29 variant; human IgG1 (G1m3) / kappa (Km3), produced in CHO cells; also called huVH10/huVL1) VH: EVRLMASGGGLVQPGGSLRLSCAASEFTFSNYAMSWVRQAPGKGLEWVATISRGGDYTYYPDTVKGRFTISRDNSKNTLYLQMNSLRAEDTAVYYCARRVSMITGGAAMDYWGQGTLVTVSS VL: DVVMTQSPLSLPVTLGQPASISCRSSQSIVDITGNTYLEWYQQRPGQSPRLLIYKVFNRFSGVPDRFSGSGSGTDFTLKISRVEAEDVGVYYCFQDSFVPYTFGQGTKLEIKR	0.593
huB-E29-6 (antibody, human IgG1, kappa, V domains shown, Humanized B-E29 variant; human IgG1 (G1m3) / kappa (Km3), produced in CHO cells; also called huVH4/huVL1) VH: EVRLMASGGGLVQPGGSLRLSCAASEFTFSNYAMSWVRQAPGKGLEWVATISRGGDYTYYPDSVKGRFTISRDNSKNTLYLQMNSLRAEDTAVYYCARRVSLITGGWAMDYWGQGTLVTVSS VL: DVVMTQSPLSLPVTLGQPASISCRSSQSIVDITGNTYLEWYQQRPGQSPRLLIYKVFNRFSGVPDRFSGSGSGTDFTLKISRVEAEDVGVYYCFQDSFVPYTFGQGTKLEIKR	1.84
huB-E29-15 (antibody, human IgG1, kappa, V domains shown, Humanized B-E29 variant; human IgG1 (G1m3) / kappa (Km3), produced in CHO cells; also called huVH13/huVL1) VH: EVRLMASGGGLVQPGGSLRLSCAASEFTFSNYAMSWVRQAPGKGLEWVATISRGGDYTYYPDSVKGRFTISRDNSKNTLYLQMNSLRAEDTAVYYCARRVSMITGGWAIDYWGQGTLVTVSS VL: DVVMTQSPLSLPVTLGQPASISCRSSQSIVDITGNTYLEWYQQRPGQSPRLLIYKVFNRFSGVPDRFSGSGSGTDFTLKISRVEAEDVGVYYCFQDSFVPYTFGQGTKLEIKR	2.53
huB-E29-22 (antibody, human IgG1, kappa, V domains shown, Humanized B-E29 variant; human IgG1 (G1m3) / kappa (Km3), produced in CHO cells; also called huVH16/huVL6) VH: EVQLVESGGGLVQPGGSLRLSCAASEFTFSNYAMSWVRQAPGKGLEWVATISRGGDYTYYPDSVKGRFTISRDNSKNTLYLQMNSLRAEDTAVYYCARRVSFITGGYAFDYWGQGTLVTVSS VL: DVVMTQSPLSLPVTLGQPASISCRSSQSIVDITGNTYLEWFQQRPGQSPRRLIYKVFNRFSGVPDRFSGSGSGTDFTLKISRVEAEDVGVYYCFQESFVPYTFGQGTKLEIKR	3.87

More lines, now with the values ahead:

EC50 [nM]	Binder
2.61	huB-E29-17 (antibody, human IgG1, kappa, V domains shown, Humanized B-E29 variant; human IgG1 (G1m3) / kappa (Km3), produced in CHO cells; also called huVH15/huVL1) VH: EVRLMASGGGLVQPGGSLRLSCAASEFTFSNYAMSWVRQAPGKGLEWVATISRGGDYTYYPDTVKGRFTISRDNSKNTLYLQMNSLRAEDTAVYYCARRVSMITGGWAMDYWGQGTLVTVSS VL: DVVMTQSPLSLPVTLGQPASISCRSSQSIVDITGNTYLEWYQQRPGQSPRLLIYKVFNRFSGVPDRFSGSGSGTDFTLKISRVEAEDVGVYYCFQDSFVPYTFGQGTKLEIKR
2.01	huB-E29-16 (antibody, human IgG1, kappa, V domains shown, Humanized B-E29 variant; human IgG1 (G1m3) / kappa (Km3), produced in CHO cells; also called huVH14/huVL1) VH: EVRLMASGGGLVQPGGSLRLSCAASEFTFSNYAMSWVRQAPGKGLEWVATISRGGDYTYYPESVKGRFTISRDNSKNTLYLQMNSLRAEDTAVYYCARRVSMITGGWAMDYWGQGTLVTVSS VL: DVVMTQSPLSLPVTLGQPASISCRSSQSIVDITGNTYLEWYQQRPGQSPRLLIYKVFNRFSGVPDRFSGSGSGTDFTLKISRVEAEDVGVYYCFQDSFVPYTFGQGTKLEIKR
3.89	huB-E29-34 (antibody, human IgG1, kappa, V domains shown, Humanized B-E29 variant; human IgG1 (G1m3) / kappa (Km3), produced in CHO cells; also called huVH21/huVL6) VH: EVRLMASGGGLVQPGGSLRLSCAASEFTFSNYAMSWVRQAPGKGLEWVATISRGGDYTYYPESVKGRFTISRDNSKNTLYLQMNSLRAEDTAVYYCARRVSFITGGYAMDYWGQGTLVTVSS VL: DVVMTQSPLSLPVTLGQPASISCRSSQSIVDITGNTYLEWFQQRPGQSPRRLIYKVFNRFSGVPDRFSGSGSGTDFTLKISRVEAEDVGVYYCFQESFVPYTFGQGTKLEIKR
3.17	huB-E29-13 (antibody, human IgG1, kappa, V domains shown, Humanized B-E29 variant; human IgG1 (G1m3) / kappa (Km3), produced in CHO cells; also called huVH11/huVL1) VH: EVRLMASGGGLVQPGGSLRLSCAASEFTFSNYAMSWVRQAPGKGLEWVATISRGGDYTYYPDSVKGRFTISRDNSKNTLYLQMNSLRAEDTAVYYCARRVSMITGGWALDYWGQGTLVTVSS VL: DVVMTQSPLSLPVTLGQPASISCRSSQSIVDITGNTYLEWYQQRPGQSPRLLIYKVFNRFSGVPDRFSGSGSGTDFTLKISRVEAEDVGVYYCFQDSFVPYTFGQGTKLEIKR
0.98	huB-E29-11 (antibody, human IgG1, kappa, V domains shown, Humanized B-E29 variant; human IgG1 (G1m3) / kappa (Km3), produced in CHO cells; also called huVH9/huVL1) VH: EVRLMASGGGLVQPGGSLRLSCAASEFTFSNYAMSWVRQAPGKGLEWVATISRGGDYTYYPDTVKGRFTISRDNSKNTLYLQMNSLRAEDTAVYYCARRVSMITGGFAMDYWGQGTLVTVSS VL: DVVMTQSPLSLPVTLGQPASISCRSSQSIVDITGNTYLEWYQQRPGQSPRLLIYKVFNRFSGVPDRFSGSGSGTDFTLKISRVEAEDVGVYYCFQDSFVPYTFGQGTKLEIKR
2.21	huB-E29-19 (antibody, human IgG1, kappa, V domains shown, Humanized B-E29 variant; human IgG1 (G1m3) / kappa (Km3), produced in CHO cells; also called huVH1/huVL5) VH: EVRLMASGGGLVQPGGSLRLSCAASEFTFSNYAMSWVRQAPGKGLEWVATISRGGDYTYYPDSVKGRFTISRDNSKNTLYLQMNSLRAEDTAVYYCARRVSMITGGWAMDYWGQGTLVTVSS VL: DVVMTQSPLSLPVTLGQPASISCRSSQSIVDITGNTYLEWYQQRPGQSPRLLIYKVFNRFSGVPDRFSGSGSGTDFTLKISRVEAEDVGVYYCFQDTFVPYTFGQGTKLEIKR

From patent US20170137511A1 (CALYPSO BIOTECH, published 2017)
